Experimental findings from article PMC10711656, “RZZ‐Spindly and CENP‐E form an integrated platform to recruit dynein to the kinetochore corona” (The EMBO Journal, 2023) are described below.

For assay [1], the target named is T1, ^mChRZZS filaments (mCherry-RZZ with prefarnesylated Spindly, polymerised with GST-MPS1) (UniProt P50748 1-2209; Q9H900 1-591; O43264 1-779; Q96EA4 1-605, incubated with GST-MPS1 (the paper says that MPS1 phosphorylates ROD on Thr13 and Ser15) | farnesylated (prefarnesylated)).
T1 construct: ROD subunit of the ROD-Zwilch-ZW10 (RZZ) complex; Zwilch subunit of the RZZ complex; ZW10 subunit of the RZZ complex; Spindly, dynein-dynactin adaptor; no mCherry is named on the Spindly of the filaments; Filaments formed essentially as described by d'Amico et al (2022); source: mCherry-RZZ: biGBac system, purified as previously described; 4 μM mCherry-RZZ and 8 μM prefarnesylated Spindly …
As to the kind of experiment: filament-binding assay (fluorescence microscopy); mCherry-RZZS filaments diluted 1:8, EGFP-CENP-E constructs added to 1 μM, flowed into a flow chamber and imaged; M-buffer (50 mM HEPES pH 7.5, 100 mM NaCl, 1 mM MgCl2, 1 mM TCEP). The note with it: both partners purified.

For assay [2], the target named is T2, ^mCHRZZ^mChS rings (mCherry-RZZ with prefarnesylated mCherry-Spindly, polymerised with GST-MPS1) (UniProt P50748 1-2209; Q9H900 1-591; O43264 1-779; Q96EA4 1-605, incubated with GST-MPS1 (the paper says that MPS1 phosphorylates ROD on Thr13 and Ser15) | farnesylated (prefarnesylated)).
T2 construct: ROD subunit of the ROD-Zwilch-ZW10 (RZZ) complex; Zwilch subunit of the RZZ complex; ZW10 subunit of the RZZ complex; Spindly, dynein-dynactin adaptor; Constructs as in Sacristan et al, 2018, Raisch et al, 2022 and d'Amico et al, 2022; also called RZZS minicircles; RZZS rings; source: mCherry-RZZ: biGBac system, purified as previously described; mCherry-Spindly: Tnao38 insect cells, purified; 4 …
The experiment in a line: TIRF microscopy ring-binding assay; mCherry-RZZ/mCherry-Spindly rings (approximately 40 nM) held on the coverslip by anti-mCherry GST-tagged nanobody; EGFP-CENP-E constructs (10 nM) flowed in; A-buffer (50 mM HEPES pH 8, 200 mM NaCl, 2 mM TCEP, 0.1 mg/ml BSA); room temperature. The note with it: both partners purified.

T2 sequence (P50748 whole entry, chain 1 of 4): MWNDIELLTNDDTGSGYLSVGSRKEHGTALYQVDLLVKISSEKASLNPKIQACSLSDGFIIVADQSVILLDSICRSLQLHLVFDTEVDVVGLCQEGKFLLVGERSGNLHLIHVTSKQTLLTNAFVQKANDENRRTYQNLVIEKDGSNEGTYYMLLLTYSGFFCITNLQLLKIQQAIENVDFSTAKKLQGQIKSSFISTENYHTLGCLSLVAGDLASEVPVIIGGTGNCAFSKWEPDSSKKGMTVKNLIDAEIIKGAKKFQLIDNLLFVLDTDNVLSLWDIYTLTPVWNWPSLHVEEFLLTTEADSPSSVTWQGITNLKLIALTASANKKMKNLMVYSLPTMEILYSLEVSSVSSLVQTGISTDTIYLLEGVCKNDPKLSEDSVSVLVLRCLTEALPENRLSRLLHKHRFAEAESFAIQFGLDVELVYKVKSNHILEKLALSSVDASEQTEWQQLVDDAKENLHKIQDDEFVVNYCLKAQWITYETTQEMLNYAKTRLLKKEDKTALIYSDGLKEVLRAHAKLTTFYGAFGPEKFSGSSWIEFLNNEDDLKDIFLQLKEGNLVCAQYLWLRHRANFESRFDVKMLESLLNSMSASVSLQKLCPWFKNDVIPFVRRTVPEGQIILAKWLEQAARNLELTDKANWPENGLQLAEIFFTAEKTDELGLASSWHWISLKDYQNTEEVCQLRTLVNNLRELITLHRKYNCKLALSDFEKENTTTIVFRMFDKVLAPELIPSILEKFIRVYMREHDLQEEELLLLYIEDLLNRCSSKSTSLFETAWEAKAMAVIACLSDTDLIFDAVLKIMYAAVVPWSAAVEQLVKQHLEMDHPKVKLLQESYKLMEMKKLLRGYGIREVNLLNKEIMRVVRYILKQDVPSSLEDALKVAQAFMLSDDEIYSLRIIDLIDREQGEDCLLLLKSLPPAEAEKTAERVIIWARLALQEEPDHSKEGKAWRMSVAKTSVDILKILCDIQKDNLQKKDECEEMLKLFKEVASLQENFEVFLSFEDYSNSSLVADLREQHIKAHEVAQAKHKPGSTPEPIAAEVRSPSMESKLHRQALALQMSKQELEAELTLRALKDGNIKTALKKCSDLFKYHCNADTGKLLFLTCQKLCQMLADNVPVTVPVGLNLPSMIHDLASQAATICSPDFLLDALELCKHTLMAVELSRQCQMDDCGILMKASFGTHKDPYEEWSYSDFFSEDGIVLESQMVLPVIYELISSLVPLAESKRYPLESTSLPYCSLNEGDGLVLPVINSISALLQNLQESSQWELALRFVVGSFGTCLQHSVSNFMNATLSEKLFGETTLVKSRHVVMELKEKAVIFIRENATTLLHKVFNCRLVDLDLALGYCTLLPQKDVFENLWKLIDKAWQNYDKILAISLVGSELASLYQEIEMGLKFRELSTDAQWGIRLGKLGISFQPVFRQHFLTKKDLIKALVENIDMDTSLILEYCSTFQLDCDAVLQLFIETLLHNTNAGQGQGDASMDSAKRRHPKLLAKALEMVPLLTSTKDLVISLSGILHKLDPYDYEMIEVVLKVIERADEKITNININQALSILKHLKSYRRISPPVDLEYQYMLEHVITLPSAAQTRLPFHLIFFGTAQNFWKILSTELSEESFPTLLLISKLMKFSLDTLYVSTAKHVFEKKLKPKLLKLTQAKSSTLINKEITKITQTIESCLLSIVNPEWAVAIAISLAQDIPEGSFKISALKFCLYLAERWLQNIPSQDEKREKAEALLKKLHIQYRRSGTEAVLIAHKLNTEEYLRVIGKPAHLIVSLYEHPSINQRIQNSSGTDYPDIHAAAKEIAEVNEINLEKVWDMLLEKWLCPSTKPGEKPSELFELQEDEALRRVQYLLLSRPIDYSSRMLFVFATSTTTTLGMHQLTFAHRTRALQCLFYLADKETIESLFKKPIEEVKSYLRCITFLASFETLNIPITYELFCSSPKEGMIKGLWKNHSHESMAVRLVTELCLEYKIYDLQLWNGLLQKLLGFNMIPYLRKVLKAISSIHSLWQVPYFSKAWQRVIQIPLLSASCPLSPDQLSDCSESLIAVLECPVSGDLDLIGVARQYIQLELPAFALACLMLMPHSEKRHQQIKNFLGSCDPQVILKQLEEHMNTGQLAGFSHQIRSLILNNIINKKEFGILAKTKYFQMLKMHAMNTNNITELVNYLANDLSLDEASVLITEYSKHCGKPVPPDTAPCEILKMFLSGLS
T2 sequence (Q9H900 whole entry, chain 2 of 4): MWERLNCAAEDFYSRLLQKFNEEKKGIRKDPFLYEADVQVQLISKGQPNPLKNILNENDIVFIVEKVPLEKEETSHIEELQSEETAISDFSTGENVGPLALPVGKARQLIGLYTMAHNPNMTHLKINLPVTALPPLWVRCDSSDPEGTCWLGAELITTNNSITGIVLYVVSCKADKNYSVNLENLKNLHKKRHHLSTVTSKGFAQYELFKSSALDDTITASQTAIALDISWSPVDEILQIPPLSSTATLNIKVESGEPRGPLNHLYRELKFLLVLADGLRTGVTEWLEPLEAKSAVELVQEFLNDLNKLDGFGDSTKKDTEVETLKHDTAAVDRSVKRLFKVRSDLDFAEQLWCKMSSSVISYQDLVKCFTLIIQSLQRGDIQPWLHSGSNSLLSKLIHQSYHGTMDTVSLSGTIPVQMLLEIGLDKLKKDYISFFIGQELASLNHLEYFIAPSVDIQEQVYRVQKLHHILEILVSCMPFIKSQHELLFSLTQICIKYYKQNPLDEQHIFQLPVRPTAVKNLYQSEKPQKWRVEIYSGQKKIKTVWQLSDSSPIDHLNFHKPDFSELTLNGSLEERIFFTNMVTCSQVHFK
T2 sequence (O43264 whole entry, chain 3 of 4): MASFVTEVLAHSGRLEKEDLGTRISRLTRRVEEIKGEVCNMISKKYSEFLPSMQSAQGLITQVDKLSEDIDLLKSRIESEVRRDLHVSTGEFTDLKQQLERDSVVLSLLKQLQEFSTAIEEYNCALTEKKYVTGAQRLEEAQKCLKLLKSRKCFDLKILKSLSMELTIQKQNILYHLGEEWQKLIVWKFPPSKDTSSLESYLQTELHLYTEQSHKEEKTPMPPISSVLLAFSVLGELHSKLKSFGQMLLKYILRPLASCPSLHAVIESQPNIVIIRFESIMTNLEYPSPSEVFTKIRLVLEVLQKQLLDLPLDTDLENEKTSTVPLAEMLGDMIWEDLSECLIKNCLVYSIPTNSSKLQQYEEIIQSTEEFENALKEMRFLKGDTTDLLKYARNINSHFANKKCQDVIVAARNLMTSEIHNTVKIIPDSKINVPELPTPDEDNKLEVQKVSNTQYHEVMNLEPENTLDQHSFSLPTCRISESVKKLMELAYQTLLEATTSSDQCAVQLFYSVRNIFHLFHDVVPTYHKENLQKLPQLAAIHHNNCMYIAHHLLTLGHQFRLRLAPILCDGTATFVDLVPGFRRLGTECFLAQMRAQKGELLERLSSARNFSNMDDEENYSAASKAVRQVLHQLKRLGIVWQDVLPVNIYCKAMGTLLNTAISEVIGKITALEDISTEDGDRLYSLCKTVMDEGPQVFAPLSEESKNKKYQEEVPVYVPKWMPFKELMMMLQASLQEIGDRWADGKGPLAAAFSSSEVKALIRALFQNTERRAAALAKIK
T2 sequence (Q96EA4 whole entry, chain 4 of 4): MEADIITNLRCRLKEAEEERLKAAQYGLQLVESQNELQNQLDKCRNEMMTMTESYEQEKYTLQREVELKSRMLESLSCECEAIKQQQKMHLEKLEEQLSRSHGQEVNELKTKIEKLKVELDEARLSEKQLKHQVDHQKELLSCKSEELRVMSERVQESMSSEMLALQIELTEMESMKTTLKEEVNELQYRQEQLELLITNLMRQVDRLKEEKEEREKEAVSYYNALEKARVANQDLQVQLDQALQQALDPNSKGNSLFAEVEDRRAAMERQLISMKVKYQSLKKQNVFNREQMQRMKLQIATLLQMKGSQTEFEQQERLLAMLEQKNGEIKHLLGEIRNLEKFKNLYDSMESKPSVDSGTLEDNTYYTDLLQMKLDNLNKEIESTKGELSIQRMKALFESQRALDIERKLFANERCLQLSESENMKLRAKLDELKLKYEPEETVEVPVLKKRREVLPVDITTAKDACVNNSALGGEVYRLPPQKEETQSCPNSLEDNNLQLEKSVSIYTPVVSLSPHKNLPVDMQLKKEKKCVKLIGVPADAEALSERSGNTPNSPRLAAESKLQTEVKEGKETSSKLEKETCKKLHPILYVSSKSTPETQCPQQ
T1 sequence (P50748 whole entry, chain 1 of 4): as the sequence (P50748 whole entry, chain 1 of 4) above
T1 sequence (Q9H900 whole entry, chain 2 of 4): as the sequence (Q9H900 whole entry, chain 2 of 4) above
T1 sequence (O43264 whole entry, chain 3 of 4): as the sequence (O43264 whole entry, chain 3 of 4) above
T1 sequence (Q96EA4 whole entry, chain 4 of 4): as the sequence (Q96EA4 whole entry, chain 4 of 4) above

B1: EGFP‐CENP‐E^2070C (domain or fragment, human, UniProt Q02224 2070-2701, looked up)
chain: RQNHQVKPEKRLLSDGQQHLTESLREKCSRIKELLKRYSEMDDHYECLNRLSLDLEKEIEFQKELSMRVKANLSLPYLQTKHIEKLFTANQRCSMEFHRIMKKLKYVLSYVTKIKEEQHESINKFEMDFIDEVEKQKELLIKIQHLQQDCDVPSRELRDLKLNQNMDLHIEEILKDFSESEFPSIKTEFQQVLSNRKEMTQFLEEWLNTRFDIEKLKNGIQKENDRICQVNNFFNNRIIAIMNESTEFEERSATISKEWEQDLKSLKEKNEKLFKNYQTLKTSLASGAQVNPTTQDNKNPHVTSRATQLTTEKIRELENSLHEAKESAMHKESKIIKMQKELEVTNDIIAKLQAKVHESNKCLEKTKETIQVLQDKVALGAKPYKEEIEDLKMKLVKIDLEKMKNAKEFEKEISATKATVEYQKEVIRLLRENLRRSQQAQDTSVISEHTDPQPSNKPLTCGGGSGIVQNTKALILKSEHIRLEKEISKLKQQNEQLIKQKNELLSNNQHLSNEVKTWKERTLKREAHKQVTCENSPKSPKVTGTASKKKQITPSQCKERNLQDPVPKESPKSCFFDSRSKSLPSPHPVRYFDNSSLGLCPEVQNAGAESVDSQPGPWHASSGKDVPECKTQ
notes: codon-optimised cDNA; The His6-EGFP tag is PreScission-cleavable, but no cleavage step is described; source: insect cells (biGBac; baculovirus from Sf9, expression in Tnao38), purified (HisTrap, Superdex 200); not shown: EGFP, N-terminal, kept
Take B1: the binding result in assay [1] and in assay [2] was “binds” in each case.

B2: EGFP‐CENP‐E^2366C (domain or fragment, human, UniProt Q02224 2366-2701, looked up)
chain: NKNPHVTSRATQLTTEKIRELENSLHEAKESAMHKESKIIKMQKELEVTNDIIAKLQAKVHESNKCLEKTKETIQVLQDKVALGAKPYKEEIEDLKMKLVKIDLEKMKNAKEFEKEISATKATVEYQKEVIRLLRENLRRSQQAQDTSVISEHTDPQPSNKPLTCGGGSGIVQNTKALILKSEHIRLEKEISKLKQQNEQLIKQKNELLSNNQHLSNEVKTWKERTLKREAHKQVTCENSPKSPKVTGTASKKKQITPSQCKERNLQDPVPKESPKSCFFDSRSKSLPSPHPVRYFDNSSLGLCPEVQNAGAESVDSQPGPWHASSGKDVPECKTQ
notes: source: E. coli BL21 (DE3) RP plus, purified (HisTrap FF, Superose 6); not shown: EGFP, N-terminal, kept
Regarding B2, the binding result in assay [2] was “binds”.
